Reference: patent US20250215048A1 (MACFARLANE BURNET INSTITUTE FOR MEDICAL RESEARCH AND PUBLIC …, published 2025)

T1: dimeric maltose binding protein (MBP)-CD81-LEL113-201 (UniProt P60033 113-201)
T1 construct: range 113-201; Coated on ELISA plates; The order of the parts follows the printed name, and no linker is stated; also called recombinant CD81
T1 sequence: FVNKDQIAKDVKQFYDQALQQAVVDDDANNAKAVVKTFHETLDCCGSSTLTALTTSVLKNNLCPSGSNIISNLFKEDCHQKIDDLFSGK


Assays:
[1] = molecular target: H77c HMW1 Δ123 (hepatitis C virus genotype 1a, strain H77c) (UniProt P27958); assay: direct ELISA on coated antigen; ratio of curve mid-points
[2] = molecular target: Con1 HMW1 Δ123 (hepatitis C virus genotype 1b, strain Con1) (UniProt Q9WMX2); assay: as above
[3] = molecular target: S52 HMW1 Δ123 (hepatitis C virus genotype 3a, strain S52); assay: as above
[4] = molecular target: T1, dimeric maltose binding protein …; assay: sandwich ELISA, MBP-CD81-LEL coated, anti-HIS detection

Molecule | binding to HMW1 Δ123 relative to monomeric Δ123 of corresponding strain [1] [fold] | binding to HMW1 Δ123 relative to H77c HMW1 Δ123 [2] [fold] | binding to HMW1 Δ123 relative to monomeric Δ123 of corresponding strain [2] [fold] | binding to HMW1 Δ123 relative to H77c HMW1 Δ123 [3] [fold] | binding to HMW1 Δ123 relative to monomeric Δ123 of corresponding strain [3] [fold] | binding result [4]
AR3C (antibody) | 0.18 | 3.92 | 0.13 | 6.17 | 0.54 | –
HC-11 (antibody) | 0.21 | 6.97 | 0.28 | 1 | < 0.2 | –
AR3B (antibody) | < 0.37 | < 6.58 | 0.17 | < 1.68 | < 0.09 | –
CBH-4D (antibody) | < 0.27 | < 1.23 | < 0.11 | < 1.68 | < 0.07 | –
HCV1 (antibody) | 1.21 | 2.05 | 1.46 | 2.08 | 0.92 | –
AR3D (antibody) | < 0.17 | 4.73 | 0.08 | – | – | –
CBH-4B (antibody) | < 0.27 | < 1 | < 0.24 | < 1 | < 0.62 | –
Con1 Δ123 glycoproteins, unfractionated (cell culture supernatant and TALON eluate) (other, Mixture of monomers, dimers and HMW forms as secreted by FS293F cells) GTYGSSGQLVNTNGSWHINRTALNCNDSLNTGFLAALFYVHKFNSSGCPERMASCGSSGCWHYAPRPCGIVPAAQVCGPVYCFTPSPVVVGTTDRFGVPTYSWGENETDVLLLNNTRPPQGNWFGCTWMNSTGFTKTCGGPPCGSSGCPTDCFRKHPEATYTKCGSGPWLTPRCLVHYPYRLWHYPCTVNFTIFKVRMYVGGVEHRLEAACNWTRGERCNLEDRDRSEHHHHHH | – | – | – | – | – | binds
S52 Δ123 glycoproteins, unfractionated (cell culture supernatant and TALON eluate) (other, Mixture of monomers, dimers and HMW forms as secreted by FS293F cells) ETHQKLQLVNTNGSWHINSTALNCNESINTGFIAGLFYYHKFNSTGCPQRLSSCGSSGCWHYAPRPCSVVPASSVCGPVYCFTPSPVVVGTTDIKGKPTYNWGENETDVFLLESLRPPSGRWFGCAWMNSTGFLKTCGAPPCGSSGCPTDCFRKHPEATYSRCGAGPWLTPRCMVDYPYRLWHYPCTVNFTLFKVRMFVGGFEHRFTAACNWTRGERCNIEDRDRSEHHHHHH | – | – | – | – | – | binds
